Experimental data from the supplement of paper PMC7877785.
± gives the uncertainty stated by the source.

Test: self-splicing fitness, log relative to wild type (ln ratio); higher = more splicing; Tetrahymena group I intron in knt gene, E. coli kanamycin selection, DiMSum; sequences stand for … in CUCUCU…GGAGGGAAAAGUUAUCAGGCAUGCACCUGGUAGCUAGUCUUUAAACCAAUAGAUUGCAUCGGUUUAAAAGGCAAGACCGUCAAAUUGCGGGAAAGGGGUCAACAGCCGUUCAGUACCAAGUCUCAGGGGAAACUUUGAGAUGGCCUUGCAAAGGGUAUGGUAAUAAGCUGACGGACAUGGUCCUAACCACGCAGCCAAGUCCUAAGUCAACAGAUCUUCUGUUGAUAUGGAUGCAGUUCACAGACUAAAUGUCGGUCGGGGAAGAUGUAUUCUUCUCAUAAGAUAUAGUCGGACCUCUCCUUAAUGGGAGCUAGCGGAUGAAGUGAUGCAACACUGGAGCCGCUGGGAACUAAUUUGUAUGCGAAAGUAUAUUGAUUAGUUUUGGAGUACUCGUGGUCG
How it was run: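 A randomised library covering all eight P1ex-region intron nucleotides was built with the intron in the knt kanamycin-resistance gene on pET-22b(+) and held in E. coli BL21(DE3). Cells were grown overnight at 37°C or 30°C on LB agar, with or without 25 μg/mL kanamycin, plus 100 μg/mL carbenicillin, 50 μM IPTG and 0.2% rhamnose, and pooled colonies were amplicon-sequenced on an Illumina HiSeq 2500. DiMSum fitness is the error-weighted combination of wild-type-normalised replicate fold changes, kanamycin versus none.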

Row | Sequence | self-splicing fitness (ln) (30 °C) | self-splicing fitness (ln) (37 °C)
1 | CGCGAGCAAUAUUACGGACU | -1.82 ± 0.3 | -0.107 ± 0.26
2 | UUCGAGCAAUAUUACGAGAG | -3.55 ± 0.44 | -2.72 ± 0.48
3 | CAAAAGCAAUAUUACGGAAU | -3.21 ± 0.21 | -2.56 ± 0.17
4 | GGAUAGCAAUAUUACGAAGU | -2.68 ± 0.29 | -2.02 ± 0.25
5 | AUGCAGCAAUAUUACGCUGC | -4.54 ± 0.2 | -3.94 ± 0.19
6 | CUAAAGCAAUAUUACGUAUG | -0.125 ± 0.059 | 0.0627 ± 0.081
7 | AGCCAGCAAUAUUACGAUAG | -4.04 ± 0.28 | -2.35 ± 0.24
8 | GAGCAGCAAUAUUACGUCAA | -1.14 ± 0.24 | -2.12 ± 0.25
9 | AUCCAGCAAUAUUACGUGAA | -0.631 ± 0.049 | -0.212 ± 0.072
10 | UUAAAGCAAUAUUACGAACG | 0.275 ± 0.12 | 0.794 ± 0.16
11 | CCCAAGCAAUAUUACGUCGA | -3.92 ± 0.26 | -2.81 ± 0.2
12 | AGUAAGCAAUAUUACGUGCC | -0.0863 ± 0.11 | -0.612 ± 0.16
13 | UACCAGCAAUAUUACGCAGU | -4.06 ± 0.27 | -2.62 ± 0.18
14 | GGCUAGCAAUAUUACGAGAG | -2.09 ± 0.16 | -3.24 ± 0.32
15 | UAUUAGCAAUAUUACGGGUA | -0.742 ± 0.12 | -0.599 ± 0.11
16 | CGCGAGCAAUAUUACGCACU | -2.58 ± 0.13 | -1.51 ± 0.13
17 | UACUAGCAAUAUUACGACAA | -0.443 ± 0.12 | -0.256 ± 0.11
18 | GCGUAGCAAUAUUACGCUUG |  | -2.26 ± 0.33
19 | GGCUAGCAAUAUUACGGUGU | -0.416 ± 0.062 | 0.178 ± 0.069
20 | CCUGAGCAAUAUUACGACCA | -2.89 ± 0.44 | -2.06 ± 0.38

Row | Sequence | self-splicing fitness (ln) (30 °C) | self-splicing fitness (ln) (37 °C)
21 | GACAAGCAAUAUUACGGAUA | -1.52 ± 0.12 | -1.47 ± 0.12
22 | GCGUAGCAAUAUUACGUGUG | -4.47 ± 0.42 | -2.77 ± 0.2
23 | ACGGAGCAAUAUUACGCAUA | -3.27 ± 0.21 | -2.86 ± 0.22
24 | GAACAGCAAUAUUACGUUGA | -1.47 ± 0.066 | -1.02 ± 0.077
25 | GCUAAGCAAUAUUACGCCAU | -2.71 ± 0.2 | -3.21 ± 0.27
26 | GGCCAGCAAUAUUACGGGGU | -3.68 ± 0.24 | -3.21 ± 0.26
27 | AGUCAGCAAUAUUACGUGAG | -0.691 ± 0.054 | -0.0397 ± 0.086
28 | CCCUAGCAAUAUUACGCCAG | -3.87 ± 0.32 | -3.21 ± 0.37
29 | AGGAAGCAAUAUUACGGCGU | -0.156 ± 0.1 | -0.118 ± 0.11
30 | GCUUAGCAAUAUUACGACAU | -1.26 ± 0.014 | -0.365 ± 0.033
31 | GUCGAGCAAUAUUACGGCAA | -3.13 ± 0.31 | -1.76 ± 0.29
32 | UGCAAGCAAUAUUACGGGCG | -1.41 ± 0.087 | -0.699 ± 0.1
33 | CGCCAGCAAUAUUACGGACG | -4.63 ± 0.31 | -2.95 ± 0.28
34 | UCUAAGCAAUAUUACGUCGG | 0.0423 ± 0.067 | 0.627 ± 0.078
35 | CCCAAGCAAUAUUACGUUUC | -3.63 ± 0.16 | -2.76 ± 0.15
36 | ACAUAGCAAUAUUACGAGGA |  | -2.56 ± 0.29
37 | CCUCAGCAAUAUUACGAUUU | -4.46 ± 0.22 | -1.39 ± 0.15
38 | UUGCAGCAAUAUUACGAGGU | -3.94 ± 0.33 | -2.65 ± 0.44
39 | GUUGAGCAAUAUUACGAUUG | -4.05 ± 0.32 | -1.87 ± 0.27
